Results: patent US20240309095A1 (Incyte, published 2024)

T1: human B7-H4 (purified monomeric recombinant human protein, ACRO biosystems) (human, UniProt Q7Z7D3 29-258, limits assumed, chemically biotinylated (EZ-Link NHS-LC-Biotin) in the yeast display and competition experiments; non-biotinylated in SPR)
T1 construct: Bought recombinant monomeric protein; also called B7x; B7S1
T1 sequence: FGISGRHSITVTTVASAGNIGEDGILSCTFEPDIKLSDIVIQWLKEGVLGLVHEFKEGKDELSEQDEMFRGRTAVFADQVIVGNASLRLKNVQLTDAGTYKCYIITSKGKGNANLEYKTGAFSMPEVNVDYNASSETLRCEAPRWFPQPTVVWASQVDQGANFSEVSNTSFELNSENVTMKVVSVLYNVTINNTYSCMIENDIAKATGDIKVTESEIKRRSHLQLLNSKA


Molecular target: T1, human B7-H4 (purified monomeric …)
Assay: SPR (Carterra LSA); scFv-Fc captured on anti-human IgG Fc, antigen injected
Protocol: Finally, the affinity of the 24 clones was determined using high-throughput surface plasmon resonance (SPR). The supernatants were arrayed by non-covalent capture in a medium-density SPR chip previously coupled with an anti-human polyclonal antibody and (at least 4 replicates per clone). Non-biotinylated antigen was used for all affinity measurements and sensorgrams were fitted using a pseudo-first-order kinetic model (Lundström 1994). […] In fact, it is notable that the off rates for some of the tested antibodies are probably better than 10⁻⁵ (Table 7), as indicated by the bunching of matured antibodies at that value (Table 7)—such slow off rates are challenging to accurately measure using SPR. No affinity difference was observed between clones coming from one combo library versus the other.
The scFv from the final population (round 3, combo libraries) was bulk cloned into a yeast expression vector containing a human IgG1 Fc region to be expressed in the scFv-Fc format. For this, the scFv region was amplified by PCR, digested with BssHII and NheI restriction enzyme (New England Biolabs), and cloned into the pDNL9 vector, 92 clones were analyzed by Sanger sequencing and 24 of these plus the parental were expressed using S. cerevisiae strain YVH10 (ATCC MYA-4940). scFv-Fc fusions were expressed for 72 h at 20° C. in the presence of galactose. The Carterra LSA surface resonance system was used for the affinity measurements. Briefly, anti-Human IgG Fc (Southern Biotech, #2048-01) was covalently coupled to an HC30M chip following the manufacturer's protocols. Crude yeast supernatants containing the scFv-Fc fusions were arrayed on the chip.

| Binder | KD fold-improvement [fold over parental] | Kd [nM] | koff [s⁻¹] | kon [M⁻¹ s⁻¹] |
| --- | --- | --- | --- | --- |
| B07 scFv-Fc (scFv, V domains shown, Tested as scFv-Fc fusion (human IgG1 Fc, vector pDNL9) in crude yeast supernatant; Combo 2 library) VH: EVQLVESGGGVVQPGRSLRLSCAASGFTFGDRAMNWVRQAPGKGLEWVSAISGSGATTYYADSVKGRFTISRDNSKNTLYLQMNSLRAEDTAVYYCARKRWYGMDVWGQGTTVTVSS VL: SYELTQPPSVSVAPGKTARITCGGNNIGSKSVHWYQQKPGQAPVLVVYDDSDRPSGIPERFSGSNSGNTATLTISRVEAGDEADYYCQVWDRGMIFGTGTKLTVL | 138 | 0.054 | 1.8e-05 | 330000 |
| A01 scFv-Fc (scFv, V domains shown, Tested as scFv-Fc fusion (human IgG1 Fc, vector pDNL9) in crude yeast supernatant; Combo 1 library) VH: EVQLVESGGGVVQPGRSLRLSCAASGFTFSNKAMNWVRQAPGKGLEWVSAISGSGATTYYADSVKGRFTISRDNSKNTLYLQMNSLRAEDTAVYYCARKRWYGMDVWGQGTTVTVSS VL: SYELTQPPSVSVAPGKTARITCGGNNIGSKSVHWYQQKPGQAPVLVVYDDSDRPSGIPERFSGSNSGNTATLTISRVEAGDEADYYCQVWDRGMIFGTGTKLTVL | 33 | 0.224 | 3.7e-05 | 170000 |
| A05 scFv-Fc (scFv, V domains shown, Tested as scFv-Fc fusion (human IgG1 Fc, vector pDNL9) in crude yeast supernatant; Combo 1 library) VH: EVQLVESGGGVVQPGRSLRLSCAASGFTYSSRAMNWVRQAPGKGLEWVSAISGSGSNAYYADSVKGRFTISRDNSKNTLYLQMNSLRAEDTAVYYCARKRWYGMDVWGQGTTVTVSS VL: SYELTQPPSVSVAPGKTARITCGGNNIGSKSVHWYQQKPGQAPVLVVYDDSDRPSGIPERFSGSNSGNTATLTISRVEAGDEADYYCQVWDRGMIFGTGTKLTVL | 63 | 0.117 | 2.2e-05 | 190000 |
| B04 scFv-Fc (scFv, V domains shown, Tested as scFv-Fc fusion (human IgG1 Fc, vector pDNL9) in crude yeast supernatant; Combo 1 library) VH: EVQLVESGGGVVQPGRSLRLSCAASGFSFSSRAMNWVRQAPGKGLEWVSAVSGSGSGTYYADSVKGRFTISRDNSKNTLYLQMNSLRAEDTAVYYCARKRWYGMDVWGQGTTVTVSS VL: SYELTQPPSVSVAPGKTARITCGGNNIGLKSVHWYQQKPGQAPVLVVYDDSDRPSGIPERFSGSNSGNTATLTISRVEAGDEADYYCQVWDRGMIFGTGTKLTVL | 43 | 0.172 | 2.7e-05 | 160000 |
| B06 scFv-Fc (scFv, V domains shown, Tested as scFv-Fc fusion (human IgG1 Fc, vector pDNL9) in crude yeast supernatant; Combo 1 library) VH: EVQLVESGGGVVQPGRSLRLSCAASGFTFSNKAMNWVRQAPGKGLEWVSAISGSGATTYYADSVKGRFTISRDNSKNTLYLQMNSLRAEDTAVYYCARKRWYGMDVWGQGTTVTVSS VL: SYELTQPPSVSVAPGKTARITCGGNNIGVKAVHWYQQKPGQAPVLVVYDDSDRPSGIPERFSGSNSGNTATLTISRVEAGDEADYYCQVWDRGMIFGTGTKLTVL | 76 | 0.097 | 1.7e-05 | 170000 |
| B09 scFv-Fc (scFv, V domains shown, Tested as scFv-Fc fusion (human IgG1 Fc, vector pDNL9) in crude yeast supernatant; Combo 2 library) VH: EVQLVESGGGVVQPGRSLRLSCAASGFTYSSRAMNWVRQAPGKGLEWVSAISSSGTTTYYADSVKGRFTISRDNSKNTLYLQMNSLRAEDTAVYYCARKRWYGMDVWGQGTTVTVSS VL: SYELTQPPSVSVAPGKTARITCGGNNIGSKSVHWYQQKPGQAPVLVVYDDSDRPSGIPERFSGSNSGNTATLTISRVEAGDEADYYCQVWDRGMIFGTGTKLTVL | 63 | 0.118 | 2.5e-05 | 210000 |
| B11 scFv-Fc (scFv, V domains shown, Tested as scFv-Fc fusion (human IgG1 Fc, vector pDNL9) in crude yeast supernatant; Combo 2 library) VH: EVQLVESGGGVVQPGRSLRLSCAASGFTFTSRAMNWVRQAPGKGLEWVSAISGSGATAYYADSVKGRFTISRDNSKNTLYLQMNSLRAEDTAVYYCARKRWYGMDVWGQGTTVTVSS VL: SYELTQPPSVSVAPGKTARITCGGNNIGSKSVHWYQQKPGQAPVLVVYDDSDRPSGIPERFSGSNSGNTATLTISRVEAGDEADYYCQVWDRGMIFGTGTKLTVL | 109 | 0.068 | 1.2e-05 | 180000 |
| B12 scFv-Fc (scFv, V domains shown, Tested as scFv-Fc fusion (human IgG1 Fc, vector pDNL9) in crude yeast supernatant; Combo 2 library) VH: EVQLVESGGGVVQPGRSLRLSCAASGFTFSDRAMNWVRQAPGKGLEWVSAISGTGASTYYADSVKGRFTISRDNSKNTLYLQMNSLRAEDTAVYYCARKRWYGMDVWGQGTTVTVSS VL: SYELTQPPSVSVAPGKTARITCGGNNIGSKSVHWYQQKPGQAPVLVVYDDSDRPSGIPERFSGSNSGNTATLTISRVEAGDEADYYCQVWDRGMIFGTGTKLTVL | 89 | 0.084 | 2.8e-05 | 340000 |

Further binders by falling Kd, results first:

| KD fold-improvement [fold over parental] | Kd [nM] | koff [s⁻¹] | kon [M⁻¹ s⁻¹] | Binder |
| --- | --- | --- | --- | --- |
| 64 | 0.117 | 1.8e-05 | 150000 | B08 scFv-Fc (scFv, V domains shown, Tested as scFv-Fc fusion (human IgG1 Fc, vector pDNL9) in crude yeast supernatant; Combo 2 library) VH: EVQLVESGGGVVQPGRSLRLSCAASGFTFSDRAMNWVRQAPGKGLEWVSAISASGASRYYADSVKGRFTISRDNSKNTLYLQMNSLRAEDTAVYYCARKRWYGMDVWGQGTTVTVSS VL: SYELTQPPSVSVAPGKTARITCGGNNIGSKSVHWYQQKPGQAPVLVVYDDSDRPSGIPERFSGSNSGNTATLTISRVEAGDEADYYCQVWDRGMIFGTGTKLTVL |
| 72 | 0.103 | 1.4e-05 | 140000 | A10 scFv-Fc (scFv, V domains shown, Tested as scFv-Fc fusion (human IgG1 Fc, vector pDNL9) in crude yeast supernatant; Combo 2 library) VH: EVQLVESGGGVVQPGRSLRLSCAASGFTFSSRSMNWVRQAPGKGLEWVSAISGTGYTTYYADSVKGRFTISRDNSKNTLYLQMNSLRAEDTAVYYCARKRWYGMDVWGQGTTVTVSS VL: SYELTQPPSVSVAPGKTARITCGGNNIGSKSVHWYQQKPGQAPVLVVYDDSDRPSGIPERFSGSNSGNTATLTISRVEAGDEADYYCQVWDRGMIFGTGTKLTVL |
| 100 | 0.074 | 1.1e-05 | 160000 | A09 scFv-Fc (scFv, V domains shown, Tested as scFv-Fc fusion (human IgG1 Fc, vector pDNL9) in crude yeast supernatant; Combo 2 library) VH: EVQLVESGGGVVQPGRSLRLSCAASGFTFSSRSMNWVRQAPGKGLEWVSAISGSGLTSYYADSVKGRFTISRDNSKNTLYLQMNSLRAEDTAVYYCARKRWYGMDVWGQGTTVTVSS VL: SYELTQPPSVSVAPGKTARITCGGNNIGSKSVHWYQQKPGQAPVLVVYDDSDRPSGIPERFSGSNSGNTATLTISRVEAGDEADYYCQVWDRGMIFGTGTKLTVL |
| 106 | 0.07 | 2.1e-05 | 300000 | B03 scFv-Fc (scFv, V domains shown, Tested as scFv-Fc fusion (human IgG1 Fc, vector pDNL9) in crude yeast supernatant; Combo 1 library) VH: EVQLVESGGGVVQPGRSLRLSCAASGFTFGDRAMNWVRQAPGKGLEWVSAISGSGSGTYYADSVKGRFTISRDNSKNTLYLQMNSLRAEDTAVYYCARKRWYGMDVWGQGTTVTVSS VL: SYELTQPPSVSVAPGKTARITCGGNNIGMKSVHWYQQKPGQAPVLVVYDDSDRPSGIPERFSGSNSGNTATLTISRVEAGDEADYYCQVWDRGMIFGTGTKLTVL |
| 108 | 0.069 | 2.1e-05 | 310000 | A04 scFv-Fc (scFv, V domains shown, Tested as scFv-Fc fusion (human IgG1 Fc, vector pDNL9) in crude yeast supernatant; Combo 1 library) VH: EVQLVESGGGVVQPGRSLRLSCAASGFTFSSRSMNWVRQAPGKGLEWVSAISGSGDTTYYADSVKGRFTISRDNSKNTLYLQMNSLRAEDTAVYYCARKRWYGMDVWGQGTTVTVSS VL: SYELTQPPSVSVAPGKTARITCGGNNIGSKSVHWYQQKPGQAPVLVVYDDSDRPSGIPERFSGSNSGNTATLTISRVEAGDEADYYCQVWDRGMIFGTGTKLTVL |
| 123 | 0.06 | 1.1e-05 | 190000 | A11 scFv-Fc (scFv, V domains shown, Tested as scFv-Fc fusion (human IgG1 Fc, vector pDNL9) in crude yeast supernatant; Combo 2 library) VH: EVQLVESGGGVVQPGRSLRLSCAASGFTFSSRSMNWVRQAPGKGLEWVSAISGSGSTVYYADSVKGRFTISRDNSKNTLYLQMNSLRAEDTAVYYCARKRWYGMDVWGQGTTVTVSS VL: SYELTQPPSVSVAPGKTARITCGGNNIGSKSVHWYQQKPGQAPVLVVYDDSDRPSGIPERFSGSNSGNTATLTISRVEAGDEADYYCQVWDRGMIFGTGTKLTVL |
| 172 | 0.043 | 1.3e-05 | 310000 | A08 scFv-Fc (scFv, V domains shown, Tested as scFv-Fc fusion (human IgG1 Fc, vector pDNL9) in crude yeast supernatant; Combo 2 library) VH: EVQLVESGGGVVQPGRSLRLSCAASGFTFGDRAMNWVRQAPGKGLEWVSAISSSGTTSYYADSVKGRFTISRDNSKNTLYLQMNSLRAEDTAVYYCARKRWYGMDVWGQGTTVTVSS VL: SYELTQPPSVSVAPGKTARITCGGNNIGSKSVHWYQQKPGQAPVLVVYDDSDRPSGIPERFSGSNSGNTATLTISRVEAGDEADYYCQVWDRGMIFGTGTKLTVL |
| 188 | 0.039 | 1.1e-05 | 280000 | A02 scFv-Fc (scFv, V domains shown, Tested as scFv-Fc fusion (human IgG1 Fc, vector pDNL9) in crude yeast supernatant; Combo 1 library) VH: EVQLVESGGGVVQPGRSLRLSCAASGFTFTSRAMNWVRQAPGKGLEWVSAISYEGRTQYYADSVKGRFTISRDNSKNTLYLQMNSLRAEDTAVYYCARKRWYGMDVWGQGTTVTVSS VL: SYELTQPPSVSVAPGKTARITCGGNNIGSKSVHWYQQKPGQAPVLVVYDDSDRPSGIPERFSGSNSGNTATLTISRVEAGDEADYYCQVWDRGMIFGTGTKLTVL |
